According to patent publication US6875741 (Novo Nordisk, dated 2005):
No end group written: not given here.

Columns and labels:
[1] = target: T1, human insulin receptor (HIR) (human, UniProt P06213 28-1382, limits assumed); assay: 125I-insulin competition, solubilized HIR
T1 construct: solubilized receptor from transfected cells

[2] = target: T2, soluble human insulin receptor-immunoglobulin heavy chain chimera (human, UniProt P06213 28-956); assay: phage ELISA ratios compared
T2 construct: extracellular domain; Heterotetramer; also called IR; sIR-Fc; not shown: immunoglobulin heavy chain constant domains replacing the transmembrane and intr

[3] = target: T3, Soluble IGF-1R (R&D Systems, Cat. # 391-GR) (UniProt P08069 31-935, limits assumed); assay: phage ELISA ratios compared
T3 construct: extracellular domain; bought; also called sIGF-1R

[4] = target: T4, soluble human insulin receptor-immunoglobulin heavy chain chimera (human, UniProt P06213 28-956, limits assumed); assay: ratio of IC50 on rhIGF-1R (TR-FRET vs b-20E2) to IC50 on sIR-Fc (FP vs FITC-RP9)
T4 construct: extracellular domain; also called sIR-Fc; slR-Fc; not shown: immunoglobulin heavy chain constant domains

| Binder | Kd [1] | IR/IGF-1R ratio comparison [2] | IGF-1R/IR ratio comparison [3] | Binding Ratio IGF-1R/IR [4] |
| --- | --- | --- | --- | --- |
| DRAFYNGLRDLVGAVYGAWD [R20α-4-20C11-IR] |  | 0.1 | 10.3 |  |
| PPWGARFYDAIEQLVFDNL (Formula 2, Site 1 peptide) [RP4] |  |  |  | 476 |
| GCAVVEEAERSRGDPFYHKLSELIQGC [B6Hα-3-E7-IR] |  | 0.2 | 4.3 |  |
| QGNVLDFYGWIGRLLAKQGSD [20E2B-3-D12-IGFR] |  | 0.1 | 7.3 |  |
| IQQELTFYDLLHRLVRSELGS [20E2B-3-D2-IGFR] |  | 0.1 | 11.7 |  |
| SACQFDCHENFYDWFARQVSGGAAYG [H2CA-4-H8-IGFR] |  | 0.1 | 9.4 |  |
| PVGVQGFYEGLSRLVLGRGGW [20E2B-4-F8-IGFR] |  | 0.1 | 9.7 |  |
| AQPCGGFYGLLEQLVGRSVCD [20E2B-4-F10-IGFR] |  | 0.1 | 7.8 |  |
| QFYGCLLDLSLGVPSFGWRRRCITA [20C-3-A4-IGFR] |  | 0.1 | 7.6 |  |
| PGTDLGFYQALRCVVIQGACD [20E2B-2-B2-IGFR] |  | 0.1 | 8.1 |  |
| DYKDFYDAIDQLVRGSARAGGTRD (Formula 2, Site 1 peptide) [20E2 (D118)] |  |  |  | 1.9 |
| TLRSPTFYDWLEMVLTHGQGG [20E2B-1-A8-IGFR] |  | 0.2 | 5 |  |
| SQAGSAFYAWFDQVLRTV (Formula 1, Site 1 peptide) [RP15] |  |  |  | 25 |
| RCQGTGFYTCIQELIGFGDPD [20E2B-4-H9-IGFR] |  | 0.2 | 5.6 |  |
| XGSLDESFYDWFERQLGKK (N-terminal Ald, linker 19, N-N dimer) [S376] | 160 nM |  |  |  |
| YSCGDGFYSLLSDLLGGQFRC [20E2B-4-H12-IGFR] |  | 0.1 | 12.8 |  |
| DWLQRNANFYDWFVAEL (not fully specified; C-terminal Lig′, linker 14) [S300] | 50 nM |  |  |  |

| Binder | Kd [1] | IR/IGF-1R ratio comparison [2] | IGF-1R/IR ratio comparison [3] | Binding Ratio IGF-1R/IR [4] |
| --- | --- | --- | --- | --- |
| RQGTGSFYLMLEQLLVGARGP [20E2B-4-G11-IGFR] |  | 0.1 | 7 |  |
| AETSVQVGWIRLQSVWPGEHWNTVDPFYHKLSELLRGSGA [B6L-4-D7-IR] |  | 0.3 | 3.4 |  |
| ASSASGFYELLQRLAGLGLEV [20E2B-3-C4-IGFR] |  | 0.2 | 6.2 |  |
| XGSLDESFYDWFERQLGKK (not fully specified; N-terminal Lig′, linker 24, N-N dimer) [S362] | 110 nM |  |  |  |
| FHENFYDWFVQRVSKK (Formula 1, Site 1 peptide) [H2C (D117)] |  |  |  | 9 |
| SRAKVEAEMPDSGDPFYHKLSELLASG [B6Hα-1-A3-IR] |  | 0.3 | 3.3 |  |
| VGYQGQGDENFYDWFIRQVSGRLGVQ [H2CA-4-F5-IGFR] |  | 0.1 | 12.3 |  |
| CGFHENFYDWFVRQVSKK (also: N-N dimer, two chains linked at Cys1, N-N dimer) [S170] | 700 nM |  |  |  |
| RFSTDGFYQYLLALVGGGPVG [20E2B-1-A11-IGFR] |  | 0.1 | 9.7 |  |
| VGRASGFPENFYDWFGRQLSLQSGEQ [H2CA-4-H6-IGFR] |  | 0.1 | 14.6 |  |
| RGKTAAVIVGRPADPFYHKLSELLQGG [B6Hα-3-E8-IR] |  | 0.2 | 4.8 |  |
| SAAQLFFQESFYDWFLRQVAESSQPN [H2CA-4-F11-IGFR] |  | 0.1 | 6.7 |  |
| RFDPFYSYFVNLLGASA [NNRPγ-4-A7-IR] |  | 0.2 | 4.9 |  |
| FFYRCLSRLLGGQLGSRLGLSCIGD [20C-3-E4-IGFR] |  | 0.2 | 6 |  |
| GSLDESFYDWFERQLG (Formula 1, Site 1 peptide; also called H2C-PD1-IGFR) [RP9] |  |  |  | 1.4 |
| AVRATRFDEAFYDWFVRQISDGQGNK [H2CA-4-F6-IGFR] |  | 0.2 | 6.4 |  |

Second part, the binder after the results:

| Kd [1] | IR/IGF-1R ratio comparison [2] | IGF-1R/IR ratio comparison [3] | Binding Ratio IGF-1R/IR [4] | Binder |
| --- | --- | --- | --- | --- |
| 2200 nM |  |  |  | GSLDESFYDWFERQLGKKX (not fully specified; C-terminal Lig′, linker 24, C-C dimer) [S361] |
|  | 0.2 | 5.9 |  | PAGPCGFYCGLGLLLHGDQSP [20E2B-4-H8-IGFR] |
|  | 0.1 | 6.7 |  | LSSDGQFYRALNLLLQGSAGR [20E2B-2-B7-IGFR] |
| 120 nM |  |  |  | EEDWLQRNANFYDWFVAELX (C-terminal Lig′ (printed LiG′), linker 23, C-C dimer) [S381] |
|  | 0.2 | 5.1 |  | VGTVAGFYDAIAQLVARASRV [20E2A-3-C7-IGFR] |
|  | 0.1 | 7.2 |  | IWATGDFYRLLSQLVMGRVGT [20E2B-2-B8-IGFR] |
|  |  |  | 0.15 | VMDARDDPFYHKLSELVT [RP16] |
|  | 0.1 | 16 |  | GIISQSCPESFYDWFAGQVSDPWWCW [H2CA-4-G9-IGFR] |
|  | 0.2 | 5.3 |  | SGAKVIVVTGDSGDPFYHKLSELLQGS [B6Hα-2-C10-IR] |
| 180 nM |  |  |  | XGSLDESFYDWFERQLGKK (not fully specified; N-terminal Ald, linker 17, N-N dimer) [S374] |
|  | 0.1 | 7.4 |  | ICTGQGFYQVLCGLLRGTSAR [20E2B-2-B3-IGFR] |
|  | 0.1 | 7.3 |  | VATSQGFYSGLSELLQGGGNV [20E2B-3-E12-IGFR] |
|  | 0.1 | 9.6 |  | NSRDGGFYLQLERLLGFPVTG [20E2B-3-D4-IGFR] |
|  | 0.1 | 7.1 |  | EGSGFYGYFFSLLGLQG [NNRPγ-4-A9-IR] |
|  |  |  | 1.3 | GIISQSCPESFYDWFAGQVSDPWWCW (Formula 1, Site 1 peptide; also called H2CA-4-G9-IGFR; S326) [G33] |
|  | 0.3 | 3.9 |  | LSVALSFYDALGQLVAGEGRW [20E2A-3-A12-IGFR] |
|  | 0.1 | 6.9 |  | DSVGDNFYQLLESLVGGHGVG [20E2B-3-D6-IGFR] |
